{"source": "paper PMC4108065", "about": "“Inflammation and pancreatic cancer: molecular and functional interactions between S100A8, S100A9, NT-S100A8 and TGFβ1” (Cell Communication and Signaling : CCS, 2014)", "key": {"[1]": {"assay": "Stability of the 2280 m/z peptide in non-conditioned media (MALDI-TOF/MS)", "assay_type": "in vitro ADME", "conditions": "200 μM, 37°C, time 0, MALDI-TOF/MS", "description": "(§1) To obtain BxPC3 and Capan1 conditioned media (CM), 400,000 cells were cultured (75 cm^2 flasks) for 96 hours in RPMI supplemented with 1% FCS and 0.1% gentamycin. In parallel, Ukrain (Nowicky Pharma, Wien, Austria) treated Capan1 CM were obtained as above, the difference being that Ukrain was added 24 hours after cells had been seeded at the final concentration of 5 μM. Complete culture media maintained in a cell culture incubator for 96 hours (negative control), Capan1 and Ukrain-treated Capan1 CM were centrifuged at 1,500 rpm for 10 min, and then immediately mixed with 3 μM S100A8 or 2.5 μM S100A9 (ProSpec-Tany TechnoGene, Ness Ziona, Israel) and maintained at 37°C overnight before MALDI-TOF/MS analyses. Complete culture media, BxPC3 and Capan1 CM, treated as described above, were incubated at 37°C with 200 μM of the S100A8 1–19 N-terminal aminoacid sequence (NT-S100A8) (Primm, Milano, Italy) for 1, 2, 3, 4, 5, 6, 12 and 24 hours before MALDI-TOF/MS analyses. At least three independent sets of experiments were performed for both assays.\n(§2) Cell culture media were first desalted and purified by ZipTip C18 pipette tips, following the procedure described in the ZipTip user’s guide. […]"}, "[2]": {"assay": "Degradation of the 2280 m/z peptide in BxPC3 conditioned media (MALDI-TOF/MS)", "assay_type": "in vitro ADME, human", "conditions": "37°C", "description": "as §1, §2"}, "[3]": {"assay": "Degradation of the 2280 m/z peptide in Capan1 conditioned media (MALDI-TOF/MS)", "assay_type": "in vitro ADME, human", "conditions": "37°C", "description": "as §1, §2"}, "S100A9, P06702": {"biological_target": "T1, S100A9, P06702", "T1 chain": "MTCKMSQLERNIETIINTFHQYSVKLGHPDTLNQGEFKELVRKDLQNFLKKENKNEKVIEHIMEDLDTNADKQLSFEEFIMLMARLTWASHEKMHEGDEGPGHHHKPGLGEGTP", "assay": "MALDI-TOF/MS of mixtures (linear positive ion mode); proteins and CaCl2 mixed at equimolar concentration (11.3 μM) in aqueous solution, incubated overnight at 37°C, diluted 1/10 in 0.1% TFA, sinapinic acid matrix", "conditions": "remark: other sources report otherwise"}, "[4]": {"biological_target": "the molecule itself", "assay": "MALDI-TOF/MS of mixtures (linear positive ion mode); proteins and CaCl2 mixed at equimolar concentration (11.3 μM) in aqueous solution, incubated overnight at 37°C, diluted 1/10 in 0.1% TFA, sinapinic acid matrix"}}, "note": "Where “and” joins values, the source holds several entries; their conditions need not be identical. Equal entries are not always repeated."}
{"molecule": "2280 m/z peptide: synthesized 1–19 N-terminal aminoacid sequence of S100A8, released by Capan1 conditioned medium (MLTELEKALNSIIDVYHKY; UniProt P05109 1-19, looked up, fragment)", "values": [{"measurement": "abundance of the parental peptide at 2280 m/z (TIC normalized)", "setting": "[1]", "result": 0.99}, {"measurement": "time of degradation of the parental 2280 m/z peptide", "setting": "[2]; 200 μM peptide in BxPC3 conditioned media (96 h, RPMI 1% FCS), MALDI-TOF/MS, TIC normalized", "result": 12, "unit": "h"}, {"measurement": "parental 19 aminoacid peptide after 24 hours' incubation", "setting": "[2]; 200 μM, BxPC3 conditioned media, 24 hours, MALDI-TOF/MS 650–3000 m/z", "result": "disappeared"}, {"measurement": "time of degradation of the parental 2280 m/z peptide", "setting": "[3]; 200 μM peptide in Capan1 conditioned media (96 h, RPMI 1% FCS), MALDI-TOF/MS, TIC normalized", "result": 2, "unit": "h"}, {"measurement": "parental 19 aminoacid peptide after 24 hours' incubation", "setting": "[3]; 200 μM, Capan1 conditioned media, 24 hours, MALDI-TOF/MS 650–3000 m/z", "result": "disappeared"}]}
{"molecule": "S100A9, P06702 1-114 (natural protein) MTCKMSQLERNIETIINTFHQYSVKLGHPDTLNQGEFKELVRKDLQNFLKKENKNEKVIEHIMEDLDTNADKQLSFEEFIMLMARLTWASHEKMHEGDEGPGHHHKPGLGEGTP", "values": [{"measurement": "stoichiometry N", "setting": "S100A9, P06702", "result": "2 and 3"}]}
{"molecule": "S100A8 (natural protein, UniProt P05109 1-93, looked up, Commercial recombinant protein; source: bought: ProSpec-Tany TechnoGene) MLTELEKALNSIIDVYHKYSLIKGNFHAVYRDDLKKLLETECPQYIRKKGADVWFKELDINTDGAVNFQEFLILVIKMGVAAHKKSHEESHKE", "values": [{"measurement": "stoichiometry N", "setting": "[4]", "result": 2}]}
